According to patent US20170022545, “RNA MICROARRAY FOR DETECTING INTERACTION BETWEEN PROTEIN AND RNA CONTAINING A HIGHER-ORDER STRUCTURE” (KYOTO UNIVERSITY, published 2017):

B1: PoP_00024_hsa-let-7e loop (ssRNA)
RNA: GACGGGAUCCAAGCGCUCGUAAUAGCGGUGUACGAAGUUUCAGCAUAGUUGAGGAGGACACCCAAGGAGAUCACUAUGCUGAAGCUUCGUGCAC
B2: PoP_00022_hsa-let-7c loop (ssRNA)
RNA: GAACUGGCAAUCGCACCCACCUAAAGGGUGUACGAAGUUUCAGCGGUUUAGAGUUACACCCUGGGAGUUAACUGCUGAAGCUUCGUGCAC
B3: PoP_00018_hsa-let-7a-1 loop (ssRNA)
RNA: GGUGACGGGCAAAUCACUAACCACCCGGUGUACGAAGUUUCAGCAUAGUUUUAGGGUCACACCCACCACUGGGAGAUAACUAUGCUGAAGCUUCGUGCAC
B4: PoP_00019_hsa-let-7a-2 loop (ssRNA)
RNA: GACACGGUAGGGAAACCCACCAACUAGGUGUACGAAGUUUCAGCAUAGUUUAGAAUUACAUCAAGGGAGAUAACUGUGCUGAAGCUUCGUGCAC
B5: PoP_00028_hsa-let-7i loop (ssRNA)
RNA: GAUAUGACCGCCGGCUUAGAAUAGAAGGUGUACGAAGUUUCAGCGCUGUUGGUCGGGUUGUGACAUUGCCCGCUGUGGAGAUAACUGCGCUGAAGCUUCGUGCAC
B6: PoP_00026_hsa-let-7f-2 loop (ssRNA)
RNA: GCCUUGAUGGCCGUCAGUUCGGUUAAGGUGUACGAAGUUUCAGCAUAGUUUUAGGGUCAUACCCCAUCUUGGAGAUAACUAUGCUGAAGCUUCGUGCAC
B7: PoP_00020_hsa-let-7a-3 loop (ssRNA)
RNA: GAGAGAGGAUUCUCACUUACUGUACCGGUGUACGAAGUUUCAGCAUAGUUUGGGGCUCUGCCCUGCUAUGGGAUAACUAUGCUGAAGCUUCGUGCAC
B8: PoP_00027_hsa-let-7g loop (ssRNA)
RNA: GCACAAGGAGUAAGGCGCAUGUACCCGGUGUACGAAGUUUCAGCACAGUUUGAGGGUCUAUGAUACCACCCGGUACAGGAGAUAACUGUGCUGAAGCUUCGUGCAC
B9: PoP_00021_hsa-let-7b loop (ssRNA)
RNA: GAACCGGCUACGCUAAACUUAGAACCGGUGUACGAAGUUUCAGCGUGGUUUCAGGGCAGUGAUGUUGCCCCUCGGAAGAUAACUAUGCUGAAGCUUCGUGCAC
B10: PoP_00023_hsa-let-7d loop (ssRNA)
RNA: GCAAUAUCAUCGCGUGUUAAGGUGGCGGUGUACGAAGUUUCAGCAUAGUUUUAGGGCAGGGAUUUUGCCCACAAGGAGGUAACUAUGCUGAAGCUUCGUGCAC
B11: PoP_00025_hsa-let-7f-1 loop (ssRNA)
RNA: GUAAUCGAGGCGUAAGGCACAACAUAGGUGUACGAAGUUUCAGCAUAGUUGUGGGGUAGUGAUUUUACCCUGUUCAGGAGAUAACUAUGCUGAAGCUUCGUGCAC
B12: PoP_00014_U1A (ssRNA)
RNA: GAUAGAGCCAACUAUGCGCAGUUACCGUUUGGGAAUAUAGUGCCAUUGCACUCCGGCGCUAUAUUCCCGGA
B13: PoP_00010_U1A2 (ssRNA)
RNA: GGUGUCCAGAUUAGGCGUGCCAUACCGUUUGGGAAUAUAGUGCCGAGUCCUUCGGGACAUUGCACCGGCGCUAUAUUCCCGGA
B14: PoP_00008_dKt (ssRNA)
RNA: GGAUUCCACUCAAGCUUCACGGGAUAGUUUGGGAAUAUAGUGCCUGCCCGAAAGGGCGUCAUGGCGCUAUAUUCCCGGA
B15: PoP_00016_dU1A (ssRNA)
RNA: GGGGUAUAUCCUCACACUUCCCGGGCGUUUGGGAAUAUAGUGCCAUUACGGUCCGGCGCUAUAUUCCCGGA
B16: PoP_00011_dU1A2 (ssRNA)
RNA: GAGACGAGGCCCUAGAUCAUGCAUCCGUUUGGGAAUAUAGUGCCGAGUCCUUCGGGACAUUACGGCGGCGCUAUAUUCCCGGA
B17: PoP_00001_Kt (ssRNA)
RNA: GUAUAAGCGGGAGAUUCGUCCUCAUAGGUGUACGAAGUUUCAGCUGACCCGAAAGGGCGUGAUGCUGAAGCUUCGUGCAC

These binders were tested against T1, L7Ae (UniProt O29494 O29494:1-119) (assay: EMSA; 50 mM HEPES-KOH pH 7.8, 100 mM KCl, on ice). Conditions: tags: Cy3-labelled (NHS ester); label: 3' pCp-Cy5; hairpin.
T1 sequence (O29494 whole entry, one chain of several): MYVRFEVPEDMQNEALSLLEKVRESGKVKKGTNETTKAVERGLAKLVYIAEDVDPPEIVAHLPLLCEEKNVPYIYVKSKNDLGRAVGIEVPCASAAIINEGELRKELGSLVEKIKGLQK
Procedure: Specific binding of DNA Barcode (bc25mer_00001) and Cy5-RNA probe (PoP_00001_Kt), and further, binding of Cy5-RNA probe (PoP_00001_Kt, PoP_00024_hsa-let-7e) and L7Ae were confirmed by EMSA as follows. First, bc25mer_00001 and PoP_00001_Kt or PoP_00024_hsa-let-7e were mixed and annealed. The composition of a reaction solution (11 μL) was as follows: 500 nM bc25mer_00001, 500 nM Cy5-RNA probe, 1× Annealing Buffer (50 mM HEPES-KOH (ph7.8), 100 mM KCl). The reaction was incubated at 95° C. for 5 minutes and at room temperature for 10 minutes. Subsequently, the DNA/RNA complex annealed and L7Ae were bound by mixing them as follows. The composition of a reaction solution (15 μL) was as follows: 0, 100, 200, 500 or 1000 nM Cy3-L7Ae, 50 nM DNA/RNA complex and 1× Annealing Buffer. Incubation was performed on ice for one hour. To the solution, 3.75 μL of a 5× dye solution (0.25% bromophenol blue, 30% glycerol) was added and mixed. The mixture solution (10 μL) was overlaid on non-denatured 15% polyacrylamide (1/30 bis-acrylamide) gel and electrophoresis was performed at 4° C. and 200 V for 60 minutes. After the electrophoresis, the gel was stained with SYBR Green I and II at room temperature for 15 minutes, and scanned by Typhoon FLA 7000 (GE Healthcare) in SYBR Green mode (600 pmt). Bands were confirmed.

Binder	binding signal
B1	~10 fold stronger than Kt

Each binder was assayed against T1, L7Ae (assay: RNA microarray, no Cy3 signal). Conditions: tags: Cy3-labelled (NHS ester); label: 3' pCp-Cy5; hairpin.
Procedure: The mixture solution was incubated at 100° C. for 5 minutes and subsequently on ice for 5 minutes. On the lower frame of a hybridization chamber (Agilent), a gasket slide (Agilent) was mounted. In a single well of the gasket slide, the mixture solution (45 μL) was added and the well was covered with a DNA Barcode microarray slide and then a hybridization chamber was assembled. The hybridization chamber was set at a rotor (Agilent) of a hybridization oven of 55° C. Incubation was performed for 20 hours at a rotation rate of 20 per minute. The hybridization chamber was taken out from the oven and made into pieces. The microarray slide was taken out, separated from the gasket in Gene Expression Wash Buffer 1 (Agilent), washed with Gene Expression Wash Buffer 1 at room temperature for 5 minutes and further washed with Gene Expression Wash Buffer 2 (Agilent) at 37° C. for 5 minutes. The dried microarray slide was scanned by a microarray scanner (Agilent) in the mode of 8×15K, c scan, AglilentHD_miRNA, two color, XDR Hi and Lo (0.05). In this manner, binding of an RNA probe to a target spot was confirmed based on Cy5 signal.
Subsequently, to the gasket slide on the hybridization chamber, 70 μL of 5 nM Cy3-L7Ae (controlled in concentration with TBSMT buffer (Tris-HCl 20 mM, NaCl 300 mM, 5 mM MgCl₂, 0.1% Tween-20)) was added and then a microarray slide scanned was mounted. A hybridization chamber was assembled and incubation was performed at room temperature for 30 minutes. The hybridization chamber was made into pieces and the microarray slide was taken out, separated from the gasket in the TBSMT buffer, washed with TBSMT buffer at room temperature for 5 minutes, and further washed with TBSM buffer (Tris-HCl 20 mM, NaCl 300 mM, 5 mM MgCl₂) at room temperature for 5 minutes. The dried microarray slide was scanned again. […] In addition, Cy3 signal, which was 1.5 times as strong as that at PoP_00001_Kt, was detected at a spot of PoP_00024_hsa-let-7e. No Cy3 signal was detected at spots of other 10 probes.

Binder	binding result
B2	no binding
B3	no binding
B4	no binding
B5	no binding
B6	no binding
B7	no binding
B8	no binding
B9	no binding
B10	no binding
B11	no binding

What follows are binders tested against T2, U1A (Homo sapiens, UniProt P09012 P09012:2-282) (assay: RNA microarray, 40 nM U1A). Conditions: tags: Cy3-labelled (NHS ester); label: 3' pCp-Cy5; hairpin.
T2 sequence (P09012 2-282, one chain of several): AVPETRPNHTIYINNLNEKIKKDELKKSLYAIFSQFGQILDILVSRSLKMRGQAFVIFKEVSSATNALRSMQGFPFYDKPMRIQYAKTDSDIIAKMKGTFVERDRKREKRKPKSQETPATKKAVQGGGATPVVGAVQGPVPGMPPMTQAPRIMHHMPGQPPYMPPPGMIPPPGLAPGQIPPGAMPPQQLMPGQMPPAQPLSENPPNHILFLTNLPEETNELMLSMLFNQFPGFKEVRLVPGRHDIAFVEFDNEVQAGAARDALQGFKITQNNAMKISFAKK
Procedure: (§1) To a 1.5-mL tube, 120 ng of Cy5-RNA probe PoP_00001 Kt, 120 ng of Cy5-RNA probe PoP_00001, 00008, 00010, 00011, 00014, 00016, PoP_00018-28 and ultrapure water were mixed and controlled to have a volume of 18 μL. Hereinafter, the same operation as described in Section 8 above was performed. Binding of the RNA probe to a target spot was confirmed based on Cy5 signal.
(§2) Subsequently, to the gasket slide on the hybridization chamber, 70 μL of 40 nM Cy3-U1A was added and a microarray slide having RNA probes bound thereto was mounted and then a hybridization chamber was assembled. Incubation was performed at room temperature for 30 minutes. The hybridization chamber was made into pieces and the microarray slide was taken out, separated from the gasket in the TBSMT buffer, washed with TBSMT buffer at room temperature for 5 minutes, and further rinsed with TBSM buffer. Thereafter, the dried microarray slide was scanned.

Binder	binding signal
B12	≥ 10 fold Cy3 signal vs other spots
B13	≥ 10 fold Cy3 signal vs other spots

What follows are binders tested against T2, U1A (assay: RNA microarray, signal at least 10-fold below U1A2/U1A). Conditions: tags: Cy3-labelled (NHS ester); label: 3' pCp-Cy5; hairpin.
Procedure: as §1, §2

Binder	binding result
B2	no binding
B14	no binding
B15	no binding
B3	no binding
B16	no binding
B4	no binding
B5	no binding
B6	no binding
B7	no binding
B1	no binding
B8	no binding
B9	no binding
B10	no binding
B11	no binding

Same assay, conditions: tags: Cy3-labelled (NHS ester); label: 3' pCp-Cy5; hairpin, Kt kink-turn loop

Binder	binding result
B17	no binding

Each binder was assayed against T1, L7Ae (assay: RNA microarray, 5 nM L7Ae, 300 mM NaCl, 5 mM MgCl2). Conditions: tags: Cy3-labelled (NHS ester); label: 3' pCp-Cy5; hairpin.
Procedure: To a 1.5 mL tube, 120 ng of Cy5-RNA probe PoP_00001_Kt, 120 ng of Cy5-RNA probe PoP_00018-28 and ultrapure water were mixed and controlled to have a volume of 18 μL. To this, 4.5 μL of 10× Gene Expression Blocking Agent (Agilent) and 22.5 μL of 2×Hi-RPM Hybridization Buffer (Agilent) were added and mixed. The mixture solution was incubated at 100° C. for 5 minutes and subsequently on ice for 5 minutes. On the lower frame of a hybridization chamber (Agilent), a gasket slide (Agilent) was mounted. In a single well of the gasket slide, the mixture solution (45 μL) was added and the well was covered with a DNA Barcode microarray slide and then a hybridization chamber was assembled. The hybridization chamber was set at a rotor (Agilent) of a hybridization oven of 55° C. Incubation was performed for 20 hours at a rotation rate of 20 per minute. The hybridization chamber was taken out from the oven and made into pieces. […]
Subsequently, to the gasket slide on the hybridization chamber, 70 μL of 5 nM Cy3-L7Ae (controlled in concentration with TBSMT buffer (Tris-HCl 20 mM, NaCl 300 mM, 5 mM MgCl₂, 0.1% Tween-20)) was added and then a microarray slide scanned was mounted. […] In addition, Cy3 signal, which was 1.5 times as strong as that at PoP_00001_Kt, was detected at a spot of PoP_00024_hsa-let-7e.

Binder	binding signal
B1	1.5 fold Cy3 signal vs Kt
